For one molecule, EC50 results are on record in paper PMC4612324, “Comparing the efficacy and neuroinflammatory potential of three anti-abeta antibodies” (Acta Neuropathologica, 2015).

The assay addresses T1, Aβ 1-40 peptide (UniProt P05067 672-711).
T1 construct: amyloid beta peptide Aβ 1-40, cut product of the amyloid precursor protein (APP); the methods call it a bought peptide, the results a 'recombinant peptide'; also called recombinant peptide; immobilised Aβ; source: bought: America Peptide, Sunnyvale, CA
Put plainly: ELISA; Aβ1-40 peptide coated on Maxisorp plates (0.1 µg/ml, bicarbonate buffer pH 9.6); antibodies serially diluted in PBS/1 % BSA, 1 h at room temperature; detected with biotinylated anti-mouse IgG and streptavidin poly-HRP; relative affinity. To be noted: both partners purified. (An ELISA detects its analyte on a solid surface through an enzyme-linked reagent.)

B1: mC2 (murine parent antibody of Crenezumab), recombinant with mouse IgG2a constant region (antibody, V domains shown)
VH: EVQLVESGGGLVQPGGSLKLSCAASGFTFSSYGMSWVRQTPDKRLELVASINSNGGSTYYPDSVKGRFTISRDNAKNTLYLQMSSLKSEDTAMYYCASGDYWGQGSTLTVSS
VL: DVVMTQTPLSLPVSLGDQASISCRSSQSLVYSNGDTYLHWYLQKPGQSPKLLIYKVSNRFSGVPDRFSGSGSGTDFTLKISRVEAEDLGVYFCSQSTHVPWTFGGGTKLEIKR
notes: heavy chain variable domain of mC2; mouse IgG2a heavy chain constant domain; light chain variable domain of mC2; mouse kappa light chain constant domain; mouse IgG2a, kappa; variable domain joined directly to the constant domain (synthetic genes); also called murine version of Crenezumab; Crenezumab-mC2; source: HEK293 6E cells, transient transfection (pTT5), purified from culture media …
In the case of B1, the EC50 was determined as 0.0174 nM.

Usually EC50 stands for the concentration that produces a half-maximal response.
